Data as given in the supplement of paper PMC10065799, “High-throughput profiling of sequence recognition by tyrosine kinases and SH2 domains using bacterial peptide display” (eLife, 2023).

Key:
c-Src = test: phosphorylation enrichment, bacterial display (enrichment ratio); higher = better substrate or ligand; peptides without Tyr show the background
Jak2 = Jak2 (UniProt O60674); test: as above
Fes = Fes (UniProt P07332); test: as above
c-Abl (mouse) = test: as above
Fer (mouse) = test: as above
EPHB2 = EPHB2 (UniProt P29323); test: as above
EPHB1 = EPHB1 (UniProt P54762); test: as above
MERTK = MERTK (UniProt Q12866); test: as above
Fyn = Fyn (UniProt P06241); test: as above
FGFR3 = FGFR3 (UniProt P22607); test: as above
AncSZ = test: as above
FGFR1 = FGFR1 (UniProt P11362); test: as above
Hck = Hck (UniProt P08631); test: as above
c-Src SH2 = test: SH2 binding enrichment of the phosphorylated peptide, bacterial display (enrichment ratio); higher = better substrate or ligand; peptides without Tyr show the background
SHP2-C SH2 = test: as above
Grb2 SH2 = Grb2 SH2 (UniProt P62993); test: as above
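Wherever SH2 binding enrichment of the phosphorylated peptide, bacterial display is given: peptide library displayed on the E. coli surface as eCPX fusions, selected cells deep-sequenced, score is each peptide's frequency after selection divided by its frequency in the input.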
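Wherever phosphorylation enrichment, bacterial display is given: 11-residue human phosphosite peptides and single-mutation variants displayed on the E. coli surface, counted by deep sequencing, each peptide's frequency after selection divided by its frequency in the unselected input library; frequency after pTyr selection over input frequency; kinase dosed for 20-30% of maximal phosphorylation in three min.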

MERTK, sequence (Q12866 whole entry, looked up): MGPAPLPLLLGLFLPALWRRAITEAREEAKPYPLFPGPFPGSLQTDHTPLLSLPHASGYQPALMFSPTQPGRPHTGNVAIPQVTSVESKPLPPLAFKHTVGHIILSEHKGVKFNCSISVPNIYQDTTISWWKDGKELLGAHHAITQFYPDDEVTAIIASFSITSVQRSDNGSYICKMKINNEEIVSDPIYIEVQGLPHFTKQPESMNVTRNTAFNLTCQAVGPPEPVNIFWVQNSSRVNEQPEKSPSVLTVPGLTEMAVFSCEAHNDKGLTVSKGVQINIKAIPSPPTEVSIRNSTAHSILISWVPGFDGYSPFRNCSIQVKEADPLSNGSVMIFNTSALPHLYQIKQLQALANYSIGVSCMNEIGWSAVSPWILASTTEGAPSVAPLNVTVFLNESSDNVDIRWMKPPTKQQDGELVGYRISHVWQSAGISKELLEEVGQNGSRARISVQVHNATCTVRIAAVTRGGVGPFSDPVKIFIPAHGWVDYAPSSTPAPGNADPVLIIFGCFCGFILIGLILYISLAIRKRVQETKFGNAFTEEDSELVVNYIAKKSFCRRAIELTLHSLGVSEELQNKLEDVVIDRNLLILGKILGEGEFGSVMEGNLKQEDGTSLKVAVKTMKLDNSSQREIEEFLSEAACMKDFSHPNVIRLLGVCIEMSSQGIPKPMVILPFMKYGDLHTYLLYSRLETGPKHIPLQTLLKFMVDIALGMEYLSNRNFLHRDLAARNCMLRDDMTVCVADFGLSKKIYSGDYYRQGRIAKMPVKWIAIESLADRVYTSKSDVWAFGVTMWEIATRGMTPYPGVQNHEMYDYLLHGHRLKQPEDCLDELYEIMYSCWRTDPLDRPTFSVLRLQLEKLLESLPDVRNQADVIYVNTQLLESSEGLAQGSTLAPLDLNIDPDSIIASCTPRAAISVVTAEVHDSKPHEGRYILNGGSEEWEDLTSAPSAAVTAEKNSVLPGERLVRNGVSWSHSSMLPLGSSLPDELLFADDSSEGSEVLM
Hck, sequence (P08631 whole entry, looked up): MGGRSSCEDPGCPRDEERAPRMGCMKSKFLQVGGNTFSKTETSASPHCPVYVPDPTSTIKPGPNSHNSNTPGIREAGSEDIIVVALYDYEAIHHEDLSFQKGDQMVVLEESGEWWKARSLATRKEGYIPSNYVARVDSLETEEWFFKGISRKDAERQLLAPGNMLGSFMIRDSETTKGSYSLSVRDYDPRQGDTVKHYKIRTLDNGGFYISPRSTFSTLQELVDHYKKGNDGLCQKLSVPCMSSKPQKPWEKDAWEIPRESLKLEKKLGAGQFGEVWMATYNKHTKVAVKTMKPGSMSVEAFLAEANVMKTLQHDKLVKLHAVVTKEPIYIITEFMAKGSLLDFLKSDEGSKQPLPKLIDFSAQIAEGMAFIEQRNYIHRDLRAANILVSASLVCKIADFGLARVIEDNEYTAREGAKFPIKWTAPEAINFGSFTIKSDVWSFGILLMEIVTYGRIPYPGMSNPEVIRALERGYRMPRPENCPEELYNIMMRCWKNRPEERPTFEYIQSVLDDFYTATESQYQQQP
FGFR3, sequence (P22607 whole entry, looked up): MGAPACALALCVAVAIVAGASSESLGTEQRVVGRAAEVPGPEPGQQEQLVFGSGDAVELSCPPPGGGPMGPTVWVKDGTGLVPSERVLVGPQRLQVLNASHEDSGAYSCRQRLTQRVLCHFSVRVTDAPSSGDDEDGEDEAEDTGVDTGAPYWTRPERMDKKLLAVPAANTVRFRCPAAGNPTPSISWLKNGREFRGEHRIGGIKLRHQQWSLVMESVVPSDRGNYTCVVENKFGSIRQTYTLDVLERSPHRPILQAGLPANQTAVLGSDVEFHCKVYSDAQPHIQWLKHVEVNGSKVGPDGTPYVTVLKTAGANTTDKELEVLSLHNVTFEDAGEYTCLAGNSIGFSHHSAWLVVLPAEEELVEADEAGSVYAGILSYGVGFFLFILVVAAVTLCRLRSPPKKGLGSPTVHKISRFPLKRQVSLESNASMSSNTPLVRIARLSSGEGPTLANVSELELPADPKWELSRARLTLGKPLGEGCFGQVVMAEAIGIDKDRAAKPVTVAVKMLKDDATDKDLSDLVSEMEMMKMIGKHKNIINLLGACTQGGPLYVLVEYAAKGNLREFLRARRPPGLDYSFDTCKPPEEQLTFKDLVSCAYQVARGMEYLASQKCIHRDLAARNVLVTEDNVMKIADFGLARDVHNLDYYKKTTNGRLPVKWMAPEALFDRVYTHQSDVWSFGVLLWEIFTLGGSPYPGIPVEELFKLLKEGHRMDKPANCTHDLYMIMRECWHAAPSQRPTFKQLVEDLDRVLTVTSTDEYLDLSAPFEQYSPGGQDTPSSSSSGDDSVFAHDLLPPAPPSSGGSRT
Grb2 SH2, sequence (P62993 whole entry, looked up, the tested form may be a part): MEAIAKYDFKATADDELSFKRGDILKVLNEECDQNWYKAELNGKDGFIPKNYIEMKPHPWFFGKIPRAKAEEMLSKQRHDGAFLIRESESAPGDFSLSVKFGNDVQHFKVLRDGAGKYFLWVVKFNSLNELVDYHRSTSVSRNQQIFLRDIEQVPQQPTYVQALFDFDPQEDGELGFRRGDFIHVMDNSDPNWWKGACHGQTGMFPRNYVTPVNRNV
EPHB1, sequence (P54762 whole entry, looked up): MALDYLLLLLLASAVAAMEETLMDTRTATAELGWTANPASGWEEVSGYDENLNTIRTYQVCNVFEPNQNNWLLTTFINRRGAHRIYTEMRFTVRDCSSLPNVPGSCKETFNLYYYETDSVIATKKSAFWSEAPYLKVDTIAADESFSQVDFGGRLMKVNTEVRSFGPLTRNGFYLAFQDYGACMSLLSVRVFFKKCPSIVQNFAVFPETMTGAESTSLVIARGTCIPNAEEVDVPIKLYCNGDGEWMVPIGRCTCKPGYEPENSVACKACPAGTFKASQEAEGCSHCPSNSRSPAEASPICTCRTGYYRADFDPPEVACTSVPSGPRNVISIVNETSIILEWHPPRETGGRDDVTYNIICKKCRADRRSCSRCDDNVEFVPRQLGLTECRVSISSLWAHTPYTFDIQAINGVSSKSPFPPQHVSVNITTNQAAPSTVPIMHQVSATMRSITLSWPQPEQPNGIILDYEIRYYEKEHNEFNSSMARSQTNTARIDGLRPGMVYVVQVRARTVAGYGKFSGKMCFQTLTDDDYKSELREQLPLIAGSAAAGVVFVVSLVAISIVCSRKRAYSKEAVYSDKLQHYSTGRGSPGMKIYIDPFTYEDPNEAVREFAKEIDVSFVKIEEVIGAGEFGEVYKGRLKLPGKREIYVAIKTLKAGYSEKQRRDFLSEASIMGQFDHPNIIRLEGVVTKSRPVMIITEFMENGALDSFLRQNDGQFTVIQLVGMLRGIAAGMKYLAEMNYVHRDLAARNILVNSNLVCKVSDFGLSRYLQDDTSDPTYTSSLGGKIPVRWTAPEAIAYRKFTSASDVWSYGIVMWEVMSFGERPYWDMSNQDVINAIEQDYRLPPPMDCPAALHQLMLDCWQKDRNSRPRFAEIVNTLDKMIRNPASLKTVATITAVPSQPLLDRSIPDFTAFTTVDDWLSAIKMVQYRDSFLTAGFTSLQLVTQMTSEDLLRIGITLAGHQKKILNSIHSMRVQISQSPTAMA
Fes, sequence (P07332 whole entry, looked up): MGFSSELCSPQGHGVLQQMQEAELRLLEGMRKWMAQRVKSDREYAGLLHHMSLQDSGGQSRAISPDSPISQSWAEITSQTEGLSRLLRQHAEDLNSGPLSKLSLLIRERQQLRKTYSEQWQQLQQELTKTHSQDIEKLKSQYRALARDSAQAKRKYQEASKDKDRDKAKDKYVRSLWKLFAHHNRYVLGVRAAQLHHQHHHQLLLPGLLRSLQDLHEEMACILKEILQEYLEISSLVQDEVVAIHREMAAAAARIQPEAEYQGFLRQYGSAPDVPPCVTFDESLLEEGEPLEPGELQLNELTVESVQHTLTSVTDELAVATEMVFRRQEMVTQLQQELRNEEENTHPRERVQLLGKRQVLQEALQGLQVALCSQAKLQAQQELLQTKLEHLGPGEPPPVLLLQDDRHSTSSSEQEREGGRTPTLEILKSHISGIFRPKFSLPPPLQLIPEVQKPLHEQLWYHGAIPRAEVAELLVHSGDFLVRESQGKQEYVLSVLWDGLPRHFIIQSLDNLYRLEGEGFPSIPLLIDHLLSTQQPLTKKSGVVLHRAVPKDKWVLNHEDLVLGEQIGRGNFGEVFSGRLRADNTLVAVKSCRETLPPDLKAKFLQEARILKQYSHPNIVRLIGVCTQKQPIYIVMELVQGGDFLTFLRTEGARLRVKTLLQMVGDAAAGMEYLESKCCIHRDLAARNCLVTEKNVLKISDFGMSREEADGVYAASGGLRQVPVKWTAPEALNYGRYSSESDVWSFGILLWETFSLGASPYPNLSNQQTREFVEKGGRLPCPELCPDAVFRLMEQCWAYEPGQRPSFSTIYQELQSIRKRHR
Fyn, sequence (P06241 whole entry, looked up): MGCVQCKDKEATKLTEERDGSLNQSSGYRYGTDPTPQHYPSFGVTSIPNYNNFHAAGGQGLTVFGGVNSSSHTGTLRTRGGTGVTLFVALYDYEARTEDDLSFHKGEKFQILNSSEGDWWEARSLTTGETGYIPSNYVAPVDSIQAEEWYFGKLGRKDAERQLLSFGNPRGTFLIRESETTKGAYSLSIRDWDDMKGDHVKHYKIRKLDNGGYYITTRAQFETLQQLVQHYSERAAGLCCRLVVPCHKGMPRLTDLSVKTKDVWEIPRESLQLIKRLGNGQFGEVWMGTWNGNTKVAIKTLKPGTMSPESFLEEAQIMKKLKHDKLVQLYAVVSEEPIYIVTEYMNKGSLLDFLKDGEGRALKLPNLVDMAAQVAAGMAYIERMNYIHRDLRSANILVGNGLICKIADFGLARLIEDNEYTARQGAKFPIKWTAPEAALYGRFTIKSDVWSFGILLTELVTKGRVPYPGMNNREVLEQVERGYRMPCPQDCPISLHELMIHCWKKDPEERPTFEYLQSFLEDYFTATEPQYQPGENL

Row | Sequence | phosphorylation enrichment (c-Src) | phosphorylation enrichment (Jak2) | phosphorylation enrichment (Fes) | phosphorylation enrichment (c-Abl (mouse)) | phosphorylation enrichment (Fer (mouse)) | phosphorylation enrichment (EPHB2) | phosphorylation enrichment (EPHB1) | phosphorylation enrichment (MERTK) | phosphorylation enrichment (Fyn) | phosphorylation enrichment (FGFR3) | phosphorylation enrichment (AncSZ) | phosphorylation enrichment (FGFR1) | phosphorylation enrichment (Hck) | SH2 binding enrichment (c-Src SH2) | SH2 binding enrichment (SHP2-C SH2) | SH2 binding enrichment (Grb2 SH2)
1 | VCDALYPPGPP | 0.443 | 0.73 | 0.794 | 0.766 | 0.489 | 0.329 | 0.465 | 0.282 | 0.306 | 0.467 | 0.779 | 0.421 | 0.288 | 0.62 | 0.675 | 0.863
2 | VDDEIYFFRKP [PBRM1_Y1289_YF] | 5.57 | 1.25 | 1.4 | 1.35 | 0.652 | 0.635 | 0.693 | 0.796 | 6.18 | 1.32 | 2.12 | 1.32 | 5.24 | 0.466 | 0.661 | 0.75
3 | VDFQPYRKHKF [TEX37_Y28_YF] | 0.377 | 0.479 | 0.639 | 0.595 | 0.463 | 0.32 | 0.403 | 0.472 | 0.45 | 0.587 | 0.553 | 0.401 | 0.451 | 0.844 | 0.87 | 0.991
4 | VDSNPYSHLMA [UBA5_Y53_R55H] | 0.862 | 0.577 | 0.631 | 0.504 | 1.25 | 0.481 | 0.48 | 0.518 | 0.639 | 0.489 | 0.669 | 0.418 | 0.891 | 1.59 | 1.15 | 0.813
5 | VDTGVYAVPPP [BCAR1_Y410_S407T] | 4.89 | 0.827 | 0.799 | 20.7 | 5.77 | 20.2 | 8.36 | 9.22 | 8.6 | 1.14 | 2.39 | 1.28 | 7.67 | 0.556 | 0.602 | 0.775
6 | VFGVSYDEFRF [CFTR_Y512_I507V_YF] | 2.83 | 1.4 | 1.13 | 0.823 | 1.98 | 0.577 | 0.578 | 0.799 | 1.13 | 0.736 | 1.09 | 0.452 | 1.25 | 0.859 | 1.09 | 0.984
7 | VGQRPYRPLPE [REEP3_Y170_Q171R] | 0.471 | 0.67 | 0.637 | 0.683 | 0.482 | 0.557 | 0.391 | 0.473 | 0.492 | 0.519 | 0.584 | 0.482 | 0.4 | 0.59 | 0.68 | 0.957
8 | VGRVGYVSGWG [HP_Y280] | 0.507 | 0.821 | 0.792 | 0.807 | 0.395 | 0.514 | 0.4 | 0.406 | 0.456 | 0.56 | 0.781 | 0.427 | 0.415 | 0.606 | 0.854 | 0.809
9 | VHLYAYDWISI [BEST1_Y227_G222V] | 1.44 | 1.33 | 3.05 | 0.865 | 13 | 5.88 | 7.2 | 8.36 | 1.18 | 4.71 | 2.32 | 5.73 | 1.83 | 1.18 | 1.42 | 1.48
10 | VHSGTYQVTVR [MYBPC3_Y1043] | 0.561 | 0.48 | 0.586 | 0.442 | 0.435 | 0.489 | 0.521 | 0.409 | 0.448 | 0.391 | 0.593 | 0.404 | 0.738 | 0.567 | 0.64 | 0.725
11 | VICRRYLVMQR [IL3RA_Y328] | 0.342 | 0.894 | 1.05 | 0.618 | 0.46 | 0.69 | 0.456 | 0.531 | 0.595 | 0.74 | 1.24 | 0.786 | 0.487 | 0.354 | 0.416 | 0.816
12 | VKALKYKSMKI [ITGA11_Y1098_L1093V] | 0.306 | 0.434 | 0.507 | 0.472 | 0.327 | 0.331 | 0.32 | 0.276 | 0.329 | 0.405 | 0.396 | 0.369 | 0.31 | 1.14 | 1.23 | 1.29
13 | VKPENDRRLDI [VHL_Y175_Y175D] | 0.356 | 0.692 | 0.789 | 0.535 | 0.43 | 0.438 | 0.44 | 0.531 | 0.43 | 0.539 | 0.675 | 0.37 | 0.43 | 0.584 | 0.718 | 1.12
14 | VMAVAYRLAEQ [HK1_Y461_T457M] | 0.463 | 1.04 | 1.06 | 0.708 | 0.491 | 0.496 | 0.619 | 0.46 | 0.431 | 0.676 | 0.972 | 0.463 | 0.445 | 0.685 | 1.03 | 1.26
15 | VQQVIYATRAL [MYH7_Y422_G425R] | 7.24 | 0.598 | 0.684 | 14.1 | 0.57 | 0.505 | 0.434 | 0.711 | 9.04 | 0.534 | 0.663 | 0.468 | 8.57 | 0.518 | 1.06 | 0.652
16 | VRALTYCDLHK [KCNH2_Y827] | 0.392 | 0.605 | 0.874 | 0.656 | 0.531 | 0.704 | 0.603 | 0.453 | 0.499 | 0.591 | 0.74 | 0.452 | 0.582 | 0.715 | 0.968 | 0.885
17 | VRFMAYTDETF [F8_Y450] | 0.433 | 1.2 | 1.19 | 0.789 | 0.494 | 0.612 | 0.657 | 0.456 | 0.516 | 0.746 | 1.04 | 0.608 | 0.487 | 0.498 | 0.719 | 0.734

Row | Sequence | phosphorylation enrichment (c-Src) | phosphorylation enrichment (Jak2) | phosphorylation enrichment (Fes) | phosphorylation enrichment (c-Abl (mouse)) | phosphorylation enrichment (Fer (mouse)) | phosphorylation enrichment (EPHB2) | phosphorylation enrichment (EPHB1) | phosphorylation enrichment (MERTK) | phosphorylation enrichment (Fyn) | phosphorylation enrichment (FGFR3) | phosphorylation enrichment (AncSZ) | phosphorylation enrichment (FGFR1) | phosphorylation enrichment (Hck) | SH2 binding enrichment (c-Src SH2) | SH2 binding enrichment (SHP2-C SH2) | SH2 binding enrichment (Grb2 SH2)
18 | VRFMEYETQVK [TARDBP_Y155_T153M] | 0.481 | 0.979 | 0.981 | 0.73 | 0.418 | 1.14 | 1.25 | 0.373 | 0.384 | 0.694 | 0.943 | 0.394 | 0.459 | 0.52 | 0.958 | 0.888
19 | VRTGIYHGREP [PIK3CA_Y361_G364R] | 0.503 | 0.491 | 0.599 | 0.581 | 0.374 | 0.38 | 0.302 | 0.291 | 0.357 | 0.46 | 0.478 | 0.324 | 0.638 | 0.568 | 0.766 | 1.06
20 | VSFDEYRFRSF [CFTR_Y515_V520F_YF] | 0.561 | 1.11 | 1.12 | 0.982 | 0.502 | 0.568 | 0.612 | 0.45 | 0.569 | 0.739 | 0.903 | 0.514 | 0.484 | 0.393 | 0.715 | 0.834
21 | VSLLPYFPAIM [IPO4_Y518_A513V] | 0.443 | 2.06 | 1.32 | 0.754 | 0.508 | 0.657 | 0.646 | 0.369 | 0.541 | 0.873 | 1.12 | 0.719 | 0.541 | 0.602 | 0.848 | 0.902
22 | VTAALYGRLFE [BTD_Y536_YF] | 4.97 | 0.633 | 0.734 | 0.626 | 0.436 | 0.656 | 0.535 | 1.08 | 6.32 | 0.527 | 0.748 | 0.439 | 5.74 | 0.627 | 1.16 | 1.16
23 | VTRANYFIRDE [GNAS_Y339_K338N] | 0.494 | 0.845 | 0.736 | 0.712 | 0.45 | 0.449 | 0.541 | 0.45 | 0.474 | 0.621 | 0.705 | 0.412 | 0.388 | 0.434 | 0.8 | 0.984
24 | VVGMLYVGGLP [LAMA2_Y2886] | 0.388 | 1.08 | 1.2 | 0.742 | 0.486 | 0.644 | 0.727 | 0.449 | 0.455 | 0.683 | 0.999 | 0.491 | 0.454 | 0.461 | 0.785 | 0.78
25 | VVPGSYDRLRV [IFT172_Y260_L257P] | 0.399 | 0.462 | 0.603 | 0.406 | 0.332 | 1.13 | 0.353 | 0.469 | 0.359 | 0.439 | 0.496 | 0.394 | 0.486 | 0.818 | 0.912 | 0.772
26 | WAFNLYDINKY [KCNIP3_Y174_D179Y] | 1.57 | 0.953 | 1.24 | 0.709 | 3.29 | 3.92 | 2.29 | 2.65 | 1.83 | 0.725 | 0.987 | 0.553 | 3.09 | 0.706 | 0.803 | 0.906
27 | WASSSYRETPS [SORBS1_Y79_R74W] | 0.362 | 0.45 | 0.57 | 0.391 | 0.389 | 0.353 | 0.411 | 0.39 | 0.402 | 0.444 | 0.57 | 0.438 | 0.409 | 0.467 | 0.846 | 0.779
28 | WCSNDHLGMSR [ALAS2_Y199_Y199H] | 0.447 | 0.537 | 0.671 | 0.504 | 0.438 | 0.514 | 0.394 | 0.418 | 0.434 | 0.576 | 0.754 | 0.416 | 0.375 | 0.684 | 0.811 | 0.801
29 | WDLPEYSYKDP [ITGA3_Y237_S235P] | 0.495 | 1.18 | 1.18 | 0.545 | 0.517 | 0.651 | 0.631 | 0.464 | 1.12 | 0.926 | 2.12 | 0.688 | 0.787 | 0.784 | 0.77 | 0.89
30 | WDLSEYSFKDP [ITGA3_Y237_YF] | 2.11 | 1.21 | 1.23 | 0.853 | 0.556 | 0.618 | 0.682 | 0.445 | 2.17 | 0.885 | 2.14 | 0.625 | 0.985 | 0.661 | 1.29 | 0.916
31 | WDSSGYWTPEE [PAPPA2_Y908_C903W] | 0.453 | 1.28 | 1.08 | 0.672 | 0.569 | 0.533 | 0.521 | 0.502 | 0.53 | 0.87 | 1.41 | 0.855 | 0.449 | 36.9 | 2.08 | 1.2
32 | WFKKFYDANYD [MAPRE2_Y158] | 0.364 | 0.899 | 1.03 | 0.774 | 0.398 | 0.529 | 0.477 | 0.399 | 0.398 | 0.552 | 1.18 | 0.43 | 0.423 | 0.581 | 0.722 | 0.82
33 | WIPIQDPIISE [NOG_Y222_Y222D] | 0.557 | 0.965 | 1.24 | 0.882 | 0.52 | 0.551 | 0.678 | 0.474 | 0.578 | 0.717 | 1.18 | 0.578 | 0.622 | 0.488 | 0.748 | 0.729
